Tests used:
C4b = biological target: T1, C4b (human, UniProt P0C0L4); experiment: cell-based or functional assay
T1 sequence: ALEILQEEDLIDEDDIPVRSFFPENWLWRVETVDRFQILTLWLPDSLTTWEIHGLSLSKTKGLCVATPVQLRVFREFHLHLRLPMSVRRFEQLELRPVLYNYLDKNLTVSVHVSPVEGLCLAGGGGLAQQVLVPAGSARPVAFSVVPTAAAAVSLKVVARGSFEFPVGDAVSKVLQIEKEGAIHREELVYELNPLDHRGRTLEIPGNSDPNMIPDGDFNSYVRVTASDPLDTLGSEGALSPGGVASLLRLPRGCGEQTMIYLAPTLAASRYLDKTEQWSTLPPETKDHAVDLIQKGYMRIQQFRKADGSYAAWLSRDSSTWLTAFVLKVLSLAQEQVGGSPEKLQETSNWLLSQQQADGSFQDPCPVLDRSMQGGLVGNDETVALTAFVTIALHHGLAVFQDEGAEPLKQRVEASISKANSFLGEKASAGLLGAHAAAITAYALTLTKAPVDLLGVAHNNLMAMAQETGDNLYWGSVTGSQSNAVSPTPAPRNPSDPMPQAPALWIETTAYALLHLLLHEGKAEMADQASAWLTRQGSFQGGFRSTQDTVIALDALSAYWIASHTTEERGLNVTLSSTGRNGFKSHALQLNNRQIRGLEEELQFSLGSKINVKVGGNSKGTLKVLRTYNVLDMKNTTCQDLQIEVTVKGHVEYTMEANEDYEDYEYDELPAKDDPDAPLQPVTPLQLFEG

C3b = C3b (human, UniProt P01024); experiment: cell-based or functional assay
[1] = biological target: soluble human C3b (human) (UniProt P01024)
human C4b (human) = biological target: T2, human C4b (human) (UniProt P0C0L5)
T2 sequence: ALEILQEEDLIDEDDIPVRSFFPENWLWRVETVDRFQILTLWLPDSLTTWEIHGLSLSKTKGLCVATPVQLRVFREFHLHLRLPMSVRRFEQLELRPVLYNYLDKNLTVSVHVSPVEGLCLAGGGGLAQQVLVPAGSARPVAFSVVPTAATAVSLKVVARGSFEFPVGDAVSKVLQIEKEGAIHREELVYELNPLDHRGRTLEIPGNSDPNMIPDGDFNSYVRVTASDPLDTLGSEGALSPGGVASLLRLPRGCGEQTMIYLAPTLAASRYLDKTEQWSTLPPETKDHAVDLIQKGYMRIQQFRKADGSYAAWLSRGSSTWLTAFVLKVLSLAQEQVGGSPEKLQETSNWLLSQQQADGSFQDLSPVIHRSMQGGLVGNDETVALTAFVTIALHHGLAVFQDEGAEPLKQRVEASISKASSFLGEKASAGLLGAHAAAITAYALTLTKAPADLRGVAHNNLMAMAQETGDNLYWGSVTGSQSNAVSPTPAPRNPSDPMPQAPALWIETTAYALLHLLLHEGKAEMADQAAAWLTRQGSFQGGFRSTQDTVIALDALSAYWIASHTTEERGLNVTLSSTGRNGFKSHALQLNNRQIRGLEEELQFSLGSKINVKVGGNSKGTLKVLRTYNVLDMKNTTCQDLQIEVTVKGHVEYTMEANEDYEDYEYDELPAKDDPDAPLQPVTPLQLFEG

[2] = biological target: soluble human C3b (human) (UniProt P01024); remark: listed apart in the source

C4b cleavage EC50 (human C4b (human)): 385 nM | C3b cleavage EC50 [2]: 25.3 nM
B1: Plasma derived, wild type human CFI (enzyme)
chain: KVTYTSQEDLVEKKCLAKKYTHLSCDKVFCQPWQRCIEGTCVCKLPYQCPKNGTAVCATNRRSFPTYCQQKSLECLHPGTKFLNNGTCTAEGKFSVSLKHGNTDSEGIVEVKLVDQDKTMFICKSSWSMREANVACLDLGFQQGADTQRRFKLSDLSINSTECLHVHCRGLETSLAECTFTKRRTMGYQDFADVVCYTQKADSPMDDFFQCVNGKYISQMKACDGINDCGDQSDELCCKACQGKGFHCKSGVCIPSQYQCNGEVDCITGEDEVGCAGFASVTQEETEILTADMDAERRRIKSLLPKLSCGVKNRMHIRRKRIVGGKRAQLGDLPWQVAIKDASGITCGGIYIGGCWILTAAHCLRASKTHRYQIWTTVVDWIHPDLKRIVIEYVDRIIFHENYNAGTYQNDIALIEMKKDGNKKDCELPRSIPACVPWSPYLFQPNDTCIVSGWGREKDNERVFSLQWGEVKLISNCSKFYGNRFYEKEMECAGTYDGSIDACKGDSGGPLVCMDANNVTYVWGVVSWGENCGKPEFPGVYTKVANYFDWISYHVGRPFISQYNV
CP IC50, classical pathway hemolysis of sensitised sheep red cells (C4b): 135 nM | AP IC50, alternative pathway hemolysis (C3b): 6.05 nM | C3b-enriched AP hemolytic assay IC50 [1]: 12.9 nM
